# Assay results: the DeepSol protein solubility set
# Assay: soluble on expression in E. coli; label from the status in PepcDB or PDB records
row,Sequence,soluble on expression in E. coli
1,MGSDKIHHHHHHMKLANQFNIAITPSGGRTGLSAGAVATNGEIVISMDKMNQILEFFPADRMVRVQAGVVTEQLQNYAEEQGMYYPVDFASAGSSQIGGNIGTNAGGIKVIKYGMTRNRVLGLTVVTGKGDILRLNKGMIKNATGYALQHLFIGGEGTLGLVTEAEIKLERQPQNLQVLVLGVPDFDAVMPVLHAFQKDIDLTAFEFFGELAMQKVLDRGHVQRPFETQCPFYVLLEFEAPYEPIIDKAMEIFEHCMEQGWVLDGVMSQSLDQVESLWRLREDISESIAPFIPYKNDISVLITHVPAFIREIDAIVQENYPDFEICWFGHIGDGNLHLNILKPENLTKDEFFAKCQVVNKYVFDTVKKYDGSISAEHGVGMTKKPYLEYSRSAEEIEYMKALKKVFDPKGIMNPGKLFDL,not soluble
2,MGQRQAKQHMQAGVKLYHQRHYAQAINKWRQSLNRLNNAEDRFITLGYLAQALCDQGEYEGMLSYALSQMQLATDQNDSAMKCEAFLNLAKAYERLADFTKALQYGKASLEHPSMDPRTPGYAHLTIALAHLGMSQFQQCLESFESAMNVANETSDRLLELQICVGLGSLFTLLRDITKALIFLRNALAIVQSVTVDDVHAKYRCLILYHLSVALRMKGSLVDAKEACDEASQLAVEMGNRAIHARCMCSLADIYRELGESEAKETITKSWARYEDAYRVMRGANDKMGEVLVLSSMAKSASESRSHYTGQCECQAIQLNKKCIEIANQIGCKHVVLKCHLRLAELYSQLNDDDSEETARRAASRLTQEMQLFCNFCGQRYGLKDESLQALRCSHIFHEKCLHTYLLQRTDQTCPKCRCRAVLSDNISIRSSIASTIDVQSPSTSFAPPGGVATPLVSAAAELGDITPQATLTRRSQQDKILRGAEKDIDRVDRSLARLKSQQSAAANACSAVAVPSPEVPSTTASCASEPILTASTTSQSHTHSNANHKPPPPPRKPCCSQAALPPSSIVALPPAMPLAEDGPLVITHTPTVTDV,not soluble
3,NSSKSLEAELVRDRQELIDARKKELKAYMMMGVTAIKPLYDSDVNGSNKQAAKEILKAMRFESDGYFFAYDSQGINTLHAIKPSLEGKNLYDLKDENGVAVIAGLIDASQKGDGFLYFSWHKPTINAQAPKLGYAEYLQKWDWVLGTGIYIDDIDQQVAMQRELRTQELNQHT,soluble
4,MSAFYQIFHDTHYKYDTPVSLAQQLAHLWPRSSPWQRCTEQALEIFPAPTTRRDELDVFGNPLTRLAFERPHDELQVNARLRIEVLERPQLDFNLSPEWEVTRNALTYSAKPMTEDILEACRYRFESPYVHLKRSFVEFSQDCFPVGRPLLLGVQALMEKIFDEFTFDEEATQVATPLVEVLESRRGVCQDFAHLMLACLRSRGLAARYVSGYLLTQPPPGQPRLIGADASHAWVSVFCPASGWVDFDPTNNVQPALEHISLAWGRDFSDVSPLRGVILGGGSHDPDVRVTVMPVSA,not soluble
5,MATTTMTMIQALRSAMDVMLERDDNVVVYGQDVGYFGGVFRCTEGLQTKYGKSRVFDAPISESGIVGTAVGMGAYGLRPVVEIQFADYFYPASDQIVSEMARLRYRSAGEFIAPLTLRMPCGGGIYGGQTHSQSPEAMFTQVCGLRTVMPSNPYDAKGLLIASIECDDPVIFLEPKRLYNGPFDGHHDRPVTPWSKHPHSAVPDGYYTVPLDKAAITRPGNDVSVLTYGTTVYVAQVAAEESGVDAEVIDLRSLWPLDLDTIVESVKKTGRCVVVHEATRTCGFGAELVSLVQEHCFHHLEAPIERVTGWDTPYPHAQEWAYFPGPSRVGAALKKVMEV,soluble
6,MNPLKAGDIAPKFSLPDQDGEQVNLTDFQGQRVLVYFYPKAMTPGCTVQACGLRDNMDELKKAGVDVLGISTDKPEKLSRFAEKELLNFTLLSDENHQVCEQFGVWGEKSFMGKTYDGIHRISFLIDADGKIEHVFNDFKTSNHHDVVLNWLKENA,not soluble
7,MGSDKIHHHHHHMILSEVRIHNFRNIASTSLILNPNFNCITGPNGGGKTSLLEALYMLSCAHSFRSREITPIISYGQNQLNVFAHAYDESTISVQKSITDGTQIKLNNQFCCTTSQLAYALPCQVIYSDIFQIIDAGPSVRRSLLDWGLFHVKHDYLKIWKDYKRILSQRNALLKSRATYDHFIPWDQQLSQLANQLDKARNDYFLQWQPKFYQVLSDLTNISCTVEYYKGWDRKNAGQNMEELLQKSFDSDRKKLYTQYGPHQADLIISTEQYRVKHTLSRGQQKIILIALKLAQGQLLDKDCLYLIDDLAAELDDYHQRNLIKYLTQQKGQFVITNLINNNNYDILPIDSGLFEVNCGAIKNL,not soluble
8,MAVPPAYADLGKSAKDIFSKGYGFGTVKLDLKTKSQSGVEFTTGGSSNTDTGKAAGNLETKYKVKELGLSLNQKWNTDNVLTTEVTLEDQLAKGLKLGLDTSFVPNTGKKSAKLKTGYKREYMNVGCDLDFDLAGPTVHAAAVLGYEGWLAGYQMAFDTAKSKLAQNNFALGYKAGDFQLHTNVNDGTEFGGSIYQKVNGQLETAVNLAWTAGSNNTRFGIAAKYQLDKDSSVSAKVNNASLVGVGYTQSLRPGVKLTLSALIDAKNFNAGGHKVGMGFELEV,not soluble
9,MPRRPGTPRGPQGGRRLLVISASMGAGHDTVAAELVRRARERGDTAQTVDVLALLPYGLGAVLRCFYRGSVRHFPWAYAALYRLFLRPGAGRRPSGTPLARLAGDRLRELAARTGADVVVPVFHLGAQLTGHLRDRGLLPVPSVVLVIDFELHRQWLHPGNDHCLCLTEEAAREARGNTGTPAETCGPVVAPEFSAGRVPGAAQWRETFDRLGPGRPAVVLSAGAWGVGSHLDATVRLLVDHGYLPVVLCGDNQRLRRTLSGTPGVLALGWVTDMPGLLHAARALIDNAAGQTAVQALAAGLPVVGHRPIPGHGADGVRRMAALGVSEVAEDRTALLEALARLTAPGPDRRRRIAAGRALFTGNADALTLVTDLADAARADVRRLEHHHHHH,not soluble
10,MSVKVIVTDMDGTFLNDAKTYNQPRFMAQYQELKKRGIKFVVASGNQYYQLISFFPELKDEISFVAENGALVYEHGKQLFHGELTRHESRIVIGELLKDKQLNFVACGLQSAYVSENAPEAFVALMAKHYHRLKPVKDYQEIDDVLFKFSLNLPDEQIPLVIDKLHIALDGIMKPVTSGFGFIDLIIPGLHKANGISRLLKRWDLSPQNVVAIGDSGNDAEMLKMARYSFAMGNAAENIKQIARYATDDNNHEGALNVIQAVLDNTSPFNS,not soluble
11,MTALISISLLLVTFAGAAEMCAPVTQHSTPQSDVPSTVTITFHKLETSTTTKDEILNAIRTSHPDVHATGEPIDKKSIKVTLTAVSCVTAMKLAEEVLNAGTPVVLNAYAMLCDGEISTNIKP,soluble
12,MGSDKIHHHHHHMKNRIIEKIENALQTLKNGGLIIITDDENRESEGDMVGLAEYVTPKAVNTMVTNARGLLCVPMSAEIAQKLGLSPMVTNAEDAFGTAFTISTDAKTTKTGISAFDRAKTIQKLADPQAKFSEFYHPGHVFPLIAEEGGVLARGGHTEAAVDLAKLAGVRPVAYITEVLKKDGTMARRNTLKSLAEGMQMPLLTIEEIKIYRYMKDAGIVKSVAKVHLPTKYGEFEMEAFDTGAGQEPTLLLTKGSLSEVQPLLLRIHSECLTGDIFGSKRCDCGEQLERSLKEIQSRGRGALLYLRQEGRGIGLANKLKAYELQEQGMDTVEANLKLGFQADERHYGVAAAILRKKGITKVNLLTNNPDKIKQLETLGIKVEERVTIQIPARPENRSYLKVKKEKMHHLLKGMD,not soluble
13,MKHLPQLEGVSVGLEGEAVSLFWGEIKEEERQEIYECAKALVPWRKGPFWVGDFLIDSEWVSAKKYALLEPHFDLCNKDVADIGCNNGYYMFRMWGQKPKSLTGFDPSPLCRTQFDFINHFIQAPIRFELLGVEHLEGYGKLFDVIFCLGVLYHRSDPIQTLKSLYKGLAKGGELLLDTLMIEGEEEVALTPKDRYAKMSNVYFIPTFKALSHWLHRAGFERVEKLEIAKTGLDEQRKTEWINSQSLEDFLDPCSHDRTIEGYPAPRRIYVKAYKGA,not soluble
14,MTATSLWELAERARKRLSEIAKGNRDRALLAMADLLEARWEEVLRANREDLEEAERTGLPKAKLDRLALKEKDLKTLTEGLRQIARLPDPLGRIEGLAKRPNGLRVGRMRVPLGLIGFIYEARPGATVEAVSVALKAGNAMLLRGGKEAFRSNRALVALWHEALGEAGLPEEAVTLVPTTDREAVLEMCRLELLDLLIPRGGEELIRLVQREARVPVLAHAKGVNHLYVDKKADLSMALRLALNGKTQRPAVCNALETVLVHEKVAEAFLPRLEKAMREKGVELRACPRALPLLKEAVPAREDEWDREYLDLVLRVKVVSGLEEALAHIARYGSRHTEAICTEDPKAAWRFLEEVDASLVLWNASTRFNDGFELGLGAEIGISTSKLHAYGPMGPMELTTLKWVALGEGQERT,soluble
15,PVLIVTPLEDQQVFVGDRVEMAVEVSEEGAQVMWMKNGVELTREDSFKARYRFKKDGKRHILIFSDVVQEDRGRYQVITNGGQCEAELIVEEKQ,soluble
16,SNAMKTEKDKMLAGEMYIADDEELVADRVEAKRLTRLYNEAVETGDERRFTLLNQLLGSSADGKAQINPDFRCDYGYNIHVGKSFFANFNCVILDVCEVRIGDHCMFAPGVHIYTATHPLHPVERNSGKEYGKPVKIGNNVWVGGGAIINPGVSIGDNAVIASGAVVTKDVPNNVVVGGNPAKVIKTIEE,soluble
17,SRMEQVIVKQGKDALTADAVFVSANPLSDSLLKSTEQLERSVMTRFSTMAFSDNGMQLISVRGVDESYPLMGELVLDGNESGRVKPNQLWLDERIMAQLEVTKGDNVTIGDADFTVSGAVLMEPGLSFNPFQQMPAAYIHQSDVEKTGAIQVGSRVQYRLFLKADNAALKQLQDKTELSPSDRWRTQDTASRSNEVFDRTTQ,not soluble
18,MGSDKIHHHHHHMNEAQQERRRSVRRDLHSYPEPAWREFYTTSRIAEEIERIGVDQLYIGRNVVDGDARMAVPDDDELEDWQRKARDAGAREDVLEAAAGGFTGALAVLEQGEGPTVALRVDIDALPITESDSVAHAPATEEFRSTNEGYMHACGHDAHATIGLGVLEAVKESDFKGTFKVVFQPAEEVIGGGKAVAESGHLDDVDHLLAIHIGLDHPTGEIVAGVGGFLAVRQFEATFTGETAHAGGHPAQGRDAVQALATAVQNLHAIRRHGDGATRVNAGVVEGGTATNIVPGEATLEGEVRGETTPLKEYMSERADTVMSSAAEMHDCEVAIETTAEAPSAVSDDALAGVVYDAADSVPGVTSRLRTDDLGGSEDATYLMDRVQNHGGTATFVGIGTDHPGGHHTPLFDIDEDSLTIGIDVVTEAISQLSG,not soluble
19,MSAAQYARLVPKKYRSKTLPKIDRPWRPRVIAWAGPAAFYPNRFYEVDKWYKARIDKPEKLPEMHIIEPAEHMKSLKVLMQKSEIEQINIGFKRREVAGKAEKSAEDRIELERKSRHMQLKIDIDHLDVENLSIYRHFQVFDHLFGDNIFFENVQNLQVNFENDIVVHSGNVITANSTLKRPEITIESVGNGGGFNTLLMINLDGNALDLGKNGEIVQWMISNIPDGEAISAGSEIIDYLQPLPFYGTGYHRVAFVLFRHEKPVDFQIQGNSLDTRIHEISKFYKKHEATITPSAIRFFQTSYDNSVKMALHGLGMTSPLYEYEHRPALKPAQREFPEKPQPFDLYLDMYRDPKEVEQEMLEKRLAEVKLDYVKEPKWVDTDYVENKKKLPAWLHAKKLERDGVGHAKYHNDL,not soluble
20,MEIFQKAKAVRLRSHHDKYLVADEDEESVTQERNGSAGAAKWTVEIIPGSTNLIRLKSAYGKYLTASNKPFLLGATGKKVLQTKPSRLDSSLAWEPIRDSALVKLKTRYGNFLRGNGGLPPWRNSVTHDIPHRSATQEWVLWHIDVVEILPANANSDHHHQHLQLQQPPSPLHHSDSLDFTPGSPSRSDRFFRQESTDSLAVGSPPKSEGRVIYYHVADDDDDVEDDSVEVSSFTFKGNGVEELTMRLKEESNVEDVIVCTRSPLNGKLFPLRLQLPPNNADMTVVLVPKSSKSESLLVLISSQVVALSLMFSVFLDLTVAEKFIK,not soluble
